Assay results reported in article PMC8529090 (Computational and Structural Biotechnology Journal, 2021).

B1: recombinant L1CAM ectodomain (L1CAM-ED) (domain or fragment, human, UniProt P32004 20-1120, looked up)
chain: IQIPEEYEGHHVMEPPVITEQSPRRLVVFPTDDISLKCEASGKPEVQFRWTRDGVHFKPKEELGVTVYQSPHSGSFTITGNNSNFAQRFQGIYRCFASNKLGTAMSHEIRLMAEGAPKWPKETVKPVEVEEGESVVLPCNPPPSAEPLRIYWMNSKILHIKQDERVTMGQNGNLYFANVLTSDNHSDYICHAHFPGTRTIIQKEPIDLRVKATNSMIDRKPRLLFPTNSSSHLVALQGQPLVLECIAEGFPTPTIKWLRPSGPMPADRVTYQNHNKTLQLLKVGEEDDGEYRCLAENSLGSARHAYYVTVEAAPYWLHKPQSHLYGPGETARLDCQVQGRPQPEVTWRINGIPVEELAKDQKYRIQRGALILSNVQPSDTMVTQCEARNRHGLLLANAYIYVVQLPAKILTADNQTYMAVQGSTAYLLCKAFGAPVPSVQWLDEDGTTVLQDERFFPYANGTLGIRDLQANDTGRYFCLAANDQNNVTIMANLKVKDATQITQGPRSTIEKKGSRVTFTCQASFDPSLQPSITWRGDGRDLQELGDSDKYFIEDGRLVIHSLDYSDQGNYSCVASTELDVVESRAQLLVVGSPGPVPRLVLSDLHLLTQSQVRVSWSPAEDHNAPIEKYDIEFEDKEMAPEKWYSLGKVPGNQTSTTLKLSPYVHYTFRVTAINKYGPGEPSPVSETVVTPEAAPEKNPVDVKGEGNETTNMVITWKPLRWMDWNAPQVQYRVQWRPQGTRGPWQEQIVSDPFLVVSNTSTFVPYEIKVQAVNSQGKGPEPQVTIGYSGEDYPQAIPELEGIEILNSSAVLVKWRPVDLAQVKGHLRGYNVTYWREGSQRKHSKRHIHKDHVVVPANTTSVILSGLRPYSSYHLEVQAFNGRGSGPASEFTFSTPEGVPGHPEALHLECQSNTSLLLRWQPPLSHNGVLTGYVLSYHPLDEGGKGQLSFNLRDPELRTHNLTDLSPHLRYRFQLQATTKEGPGEAIVREGGTMALSGISDFGNISATAGENYSVVSWVPKEGQCNFRFHILFKALGEEKGGASLSPQYVSYNQSSYTQWDLQPDTDYEIHLFKERMFRHQMAVKTNGTGRVRLPPAGFATE

Assays:
[1] = biological target: B1; test: SPR
SPR = biological target: the molecule itself; test: SPR

Row | percent reduction of the RUmax of L1CAM-ED binding to immobilised L1CAM-ED [1] [%] | Binder | Kd (SPR) [nM]
1 | 20 | PIPGDSRVVVLPSG [DCC-A peptide] | –
2 | 20 | FIPTDGRHFVSQTTG [CNTN2-A peptide] | –
3 | – | B1 | 17 ± 1.3
4 | 20 | LKEEEGRITIRGGK [ROBO3-A peptide] | –
